The text below walks through data of article PMC5619814.

As usually defined, the Kd is a measure of binding affinity in units of concentration. The low end stands for a tighter complex, the high end for a looser complex. What is called koff is the rate constant with which the complex falls apart. A higher koff goes with a short-lived complex. What is called kon is a measure of how fast the partners come together. A high value points to faster complex formation.

Assay [1] concerns the target soluble human neonatal Fc receptor (hFcRn) (human) (UniProt P55899). The assay can be described thus: SPR; ProteOn XPR36, GLC chip; rbFcRn (about 1200 RU) or hFcRn (about 1600 RU) immobilised by amine coupling; IgG injected at 8.34-133 nM, 100 μl/min, PBS-T pH 6.0, 25°C; heterogeneous ligand model (two classes of non-interacting sites). On the technique in general: SPR reads the build-up and loss of mass on a sensor chip optically.

In assay [2] the target is soluble rabbit neonatal Fc receptor (rbFcRn), heterodimer of truncated rbFcRn α-chain and rabbit β2-microglobulin (rabbit). The description is as above.
Assay [3] has the same target.
The target of assay [4] is human IgG1 (Omalizumab) (human). The assay can be described thus: SPR; ProteOn XPR36, GLC chip; rbIgG (about 1900 RU) or hIgG1 (about 2100 RU) immobilised by amine coupling; rbFcRn or hFcRn injected at 37.5-600 nM, 100 μl/min, PBS-T pH 6.0, 25°C; Langmuir 1:1 model.

As for human IgG3 (Abcam) (antibody), the results for the KD1 (high affinity class of sites, heterogeneous ligand model) in assay [1] and in assay [2] were 6.06 nM and 2.57 nM, respectively. The KD2 (low affinity class of sites, heterogeneous ligand model) in assay [1] amounted to 17.4 nM; in assay [2] it was 59.2 nM.

human IgG1 (Omalizumab) (antibody) gave a FcRn-mediated recycling assay in rabbit peritoneal macrophages: relative fluorescence intensity of Alexa 488-hIgG1 left in the cells after 20 min pulse at pH 6.0 and 30 min chase at pH 7.4 in assay [3] of 60%. In assay [1], this substance returned a KD1 (high affinity class of sites, heterogeneous ligand model) of 9.99 nM and a KD2 (low affinity class of sites, heterogeneous ligand model) of 57.2 nM. Further, in assay [2], the KD1 (high affinity class of sites, heterogeneous ligand model) worked out at 12.9 nM and the KD2 (low affinity class of sites, heterogeneous ligand model) was determined as 71.9 nM.

In assay [1], human IgG4 (Abcam) (antibody) displayed a KD1 (high affinity class of sites, heterogeneous ligand model) of 2.36 nM and a KD2 (low affinity class of sites, heterogeneous ligand model) of 20.2 nM. Also, in assay [2], the KD1 (high affinity class of sites, heterogeneous ligand model) turned out to be 3.86 nM and the KD2 (low affinity class of sites, heterogeneous ligand model) was found to be 53.5 nM.

For the substance “soluble rabbit neonatal Fc receptor (rbFcRn), heterodimer of truncated rbFcRn α-chain and rabbit β2-microglobulin (complex)”, in assay [4], the Kd was determined as 1.19 nM, the koff came to 0.00039 s⁻¹ and the kon was 327000 M⁻¹ s⁻¹.

In assay [4], “soluble human neonatal Fc receptor (hFcRn) (from UniProt P55899 24-297; P61769 21-119) (complex)” came in with a Kd of 4.3 nM, a koff of 0.000592 s⁻¹ and a kon of 138000 M⁻¹ s⁻¹.

Consider human IgG2 (Abcam) (antibody), for which, in assay [1], the KD1 (high affinity class of sites, heterogeneous ligand model) was 5.43 nM and the KD2 (low affinity class of sites, heterogeneous ligand model) was 34.7 nM. In assay [2], this substance returned a KD1 (high affinity class of sites, heterogeneous ligand model) of 7.46 nM and a KD2 (low affinity class of sites, heterogeneous ligand model) of 106 nM.
